In patent publication US20150232562A1 (Ablynx, published 2015):

B1: 13E101/1-128 (VHH)
VHH: EVQLVESGGGLVQAGGSLRLSCAVSGRTFNNDHMGWFRQAPGTERELVAATGRRGGPTYYADSVKGRFTISRDNAESTVYLQMNSLKAEDTAVYYCAANRYYCSTYGCLSTPRQYDYWGQGTQVTVSS
notes: C-term myc-His6 tag
B2: 22B85/1-120 (VHH)
VHH: EVQLVESGGGLVRPGGSLRLSCATSGSDIGINAMGWYRQAPGNQRELVATITGSTGTTYADSVKGRFAISRDGAKNTVYLQMDSLKPEDTAVYYCNLRVYTGTYGGRNYWGQGTQVTVSS
notes: C-term myc-His6 tag
B3: 11B12/1-118 (VHH)
VHH: EVQLVESGGGLVQAGGSLRLSCAASGRALINYAMGWFRQAPGKEREFVSAINWSGSHTDYGDSVKGRFAISRDNAKNTVYLQMHSLKPEDTAVYHCATGYSLPAFDSWGPGTQVTVSS
notes: C-term myc-His6 tag
B4: 13G61/1-118 (VHH)
VHH: EVQLVESGGGVVQAGGSLRLSCAPSGRTFSSYVMGWVRQAPGKAREFVAGITRNSGRTRYADSVKGRFTISRDNADNTVTLQMNSLKPEDTAVYYCAGGIDLYTFHYFGQGTQVTVSS
notes: C-term myc-His6 tag
B5: 14H41/1-118 (VHH)
VHH: EVQLVESGGGLVQAGGSLRLSCAPSGRTFSSYVMGWVRQAPGKAREFVAGITRNSIRTRYADSVKGRFTISRDNADNTVTLQMNSLKPEDTAVYYCAGGIDLYTFDYFGQGTQVTVSS
notes: C-term myc-His6 tag
B6: 11B81/1-126 (VHH)
VHH: EVQLVESGGGLVQAGGSLRLSCAASGRPVNNYIMGWFRQALGQGREFVAAINRNGATAAYADSVKGRFTISRDNAEDLLYLQMNLLKPEDTAVYYCAANSDSGFDSYSVWAAYEYWGQGTQVTVSS
notes: C-term myc-His6 tag
B7: 11C11/1-121 (VHH)
VHH: EVQLVESGGGLVQAGGSLRLSCAASGRTFSAYAMGWFRQAPGKERESVATIRWTGGSSSTSYADSVKGRFTISKNTAENTVYLQMNSLKPEDTAVYYCAVLLTVWDTYKYWGQGTQVTVSS
notes: C-term myc-His6 tag
B8: 12D92/1-123 (VHH)
VHH: EVQLVESGGGLVQAGGSLRLSCAASGRTYNMAWFRQAPGKEREFVAAMNWSGGSTKYAESVKGRFTISRANDNNPLYLQMNTLKPEDTAVYYCAATNRWYTGVYDLPSRYEYWGQGTQVTVSS
notes: C-term myc-His6 tag
B9: 13E61/1-123 (VHH)
VHH: EVQLVESGGGLVQAGGSLRLSCTASGQTFNMGWFRQAPGKEREFVAAISWSQYNTKYADSVKGRFTISRDNAINSLYLQMDTLKPEDTAVYYCAATNRWFSAVYDLPSRYTYWGQGTQVTVSS
notes: C-term myc-His6 tag
B10: 22B71/1-114 (VHH)
VHH: EVQLVESGGAFVQPGGSLRLSCAASGSDVWFNVMGWYRQGPGQQLELVASITYGGNINYGDPVKGRFSISRDNALKTVYLQMNSLKPEDTAVYYCYADLPSRLWGQGTQVTVSS
notes: C-term myc-His6 tag
B11: 21A121/1-123 (VHH)
VHH: EVQLVESGGGLVQAGGSLRLSCTASGRAFNMGWFRQAPGKEREFVAGVNWGGGSTKVADSVKERFTISRDYDNSPVYLQMNTLKPEDTAVYYCAATSRWYSAVYDLPTRYDYWGQGTQVTVSS
notes: C-term myc-His6 tag
B12: 13F101/1-124 (VHH)
VHH: EVQLVESGGGLVQAGGSLRLSCQLSGGTVSDLHMGWFRQAPGKEREFVGFTRWPSITYIAEHVKGRFTISRDNAKNTVYLQMNSLEREDTAVYYCAADRSYSIDYRHPDSYSYWGQGTQVTVSS
notes: C-term myc-His6 tag
B13: 11A43/1-123 (VHH)
VHH: EVQLVESGGGLVQAGGSLRLSCAASGSIFRVNHMGWYRQAPGKQREFVAAITSDHITWYADAVKGRFTISRDNAKNTVTLQMNSLRPEDTAVYYCAADPLLFYGVGSADVDYWGQGTQVTVSS
notes: C-term myc-His6 tag
B14: 12C81/1-117 (VHH)
VHH: EVQLVESGGGLVQPGGSLRLSCAGSGNIVRDNTMAWYRQAPGNQRDLVATINVGGGTYYAGPVKGRFTISRDNAKNSVYLQMNSLKPEDTSVYYCNVISGLVQRDYWGQGTQVTVSS
notes: C-term myc-His6 tag
B15: 11B21/1-124 (VHH)
VHH: EVQLVESGGGLVQAGGSLRLSCAASGRTFSMYLMGWFRQAPGKEREFVSTINRRGGNTYYADSVKGRFTISRDNARNTVYLQMNSLKPEDTAVYYCAAGGHLLGYDVQWEPDYWGQGTQVTVSS
notes: C-term myc-His6 tag
B16: 11B71/1-126 (VHH)
VHH: EVQLVESGGGLVQAGGSLRLSCAASGRTFERYAMGWFRQAPGKEREFVATISWSGGRDTVYADSVKGRFTISRDNAKNTVYLQMNSLKPEDTAVYYCAAHKRTYELGAHSTDFGSWGQGTQVTVSS
notes: C-term myc-His6 tag
B17: 12C121/1-126 (VHH)
VHH: EVQLVESGGDLVQPGESLRLSCAVSGVTVDYSGIGWFRQAPEKEREAVSCIESGDGTTTYVDSVKGRFTISRDNAKNAVYLQMNSLKPEDTGVYYCATAVFVDSGDFSVCRGVGYWGKGTQVTVSS
notes: C-term myc-His6 tag
B18: 22C51/1-121 (VHH)
VHH: EVQLVESGGGLVQAGASLRLSCAASGRTFSRYDIGWFRQAPGKGREFVAAINWSGGTTSFGDSVKGRFTISRDNAKNTVYLQMNSLKPEDTAVYYCAALRSWPRGVDSGSWGQGTQVTVSS
notes: C-term myc-His6 tag
B19: 12D11/1-123 (VHH)
VHH: EVQLVESGGGLVQTGGSLRLSCAASGRTFSGSRMGWFRQAPGKEREFVAAIRWSGGITWYAESVKSRFTISRDNTKNTIDLQINSLKPEDTAVYYCAADVIYKNIGSGSFDYWGQGTQVTVSS
notes: C-term myc-His6 tag
B20: 12D14/1-123 (VHH)
VHH: EVQLVESGGGLVQAGGSLRLSCAASGRTFSGSRMGWLRQAPGKEREFVAAVRWSGGITWYAESVKGRFTISRDNTKNTIDLQINSLKPEDTAVYYCAADVIYKNIGSGSFDYWGQGTQVTVSS
notes: C-term myc-His6 tag
B21: 12C111/1-123 (VHH)
VHH: EVQLVESGGGLVQAGGSLRLSCAVSGLTFSSYAMGWFRQAPGKVREFVATISRSGGRTSYADSVKGRFIVSRDNAKNTADLQMNDLKPEDTAVYYCGASKWYGGFGDTDIEYWGQGTQVTVSS
notes: C-term myc-His6 tag
B22: 22B55/1-123 (VHH)
VHH: EVQLVESGGGLVQAGGSLRLSCAVSGLTFSTYAMGWFRQAPGKVREFVATISRSGGRTSYADSVKGRFIVSRDNAKNTADLQMNELKPEDTAVYYCGASKWYGGFGDTDIEYWGQGTQVTVSS
notes: C-term myc-His6 tag
B23: 14H121/1-113 (VHH)
VHH: EVQLVESGGGLVQPGGSLRLSCAASGITFRFKAMGWFRQGPGKRRELVARIAGGSTNYADSVKGRFTISRDDAKNTVFLQMNSLKPEDTAVYYCNVDGPFGNWGQGTQVTVSS
notes: C-term myc-His6 tag
B24: 12C71/1-125 (VHH)
VHH: EVQLVESGGGLVQAGGSLRLSCTASGGTFGSYALGWFRQSPGKERESVAAIDWDGSRTQYADSVKGRFTISRENVKDTMYLQMNSLQAEDTGVYYCVRSRHSGNTLSFSLKYDYWGQGTQVTVSS
notes: C-term myc-His6 tag
B25: 21A31/1-125 (VHH)
VHH: EVQLVESGGGLVQAGGSLRLSCAASEPTFSSVAMGWFRQGPGKEREFAATITWSGDSTYVTDSVKGRFTISRDNARNTAYLQMDSLRPEDTAVYSCAARRWSGTLSLFDNEYYYWGQGTQVTVSS
notes: C-term myc-His6 tag
B26: 12C91/1-121 (VHH)
VHH: EVQLVESGGGLVQAGGSLRLSCVASGRTSSYYHMAWFRQAPGKEREFIAAINLSSGSTYYPDSVKGRFTISRGNAKNTVNLQMNSLKPEDTAVYYCAADNYRDSYLEYDYWGQGTQVTVSS
notes: C-term myc-His6 tag
B27: 14H81/1-125 (VHH)
VHH: EVQLVESGGGLVQAGGSLSLSCAASGRTFSNYRMAWFRQAPRKEREFVAAISRSGESTYFADSMKGRFTISRDNTESTGYLQMNNLKPEDTAVYYCAASWDHGDYVDGGFFYDYWGQGTQVTVSS
notes: C-term myc-His6 tag
B28: 12C42/1-124 (VHH)
VHH: EVQLVESGGGLVQAGGSLRLSCAASGRTFSRYAMHWFRQAPGSERDFVAGISWDGGSTFYANSVKGRFTISRDNAKNMVYLQMNSLKPEDTAVYYCAAAGSAGPPSIDRQYDYWGQGTQVTVSS
notes: C-term myc-His6 tag
B29: 12D102/1-118 (VHH)
VHH: EVQLVESGGGLVQPGGSLRLSCAASGSSLSFNAMGWSREAPGKRRELVARIISDDSTLYADSVKGRFTISRDYAKNTAYLQMNSLKPEDTAVYYCVADVRDSIWRSYWGQGTQVTVSS
notes: C-term myc-His6 tag
B30: 11A52/1-120 (VHH)
VHH: EVQLVESGGGLVQAGGSLRLSCAASGRALSNYAMRWFRQAPGKEREFVATINWSGSHTDYADSVKGRFTISRDNAENTVYLQMNSLTPEDTAVYYCASGWGATQAQSGFWGQGTQVTVSS
notes: C-term myc-His6 tag
B31: 14H111/1-120 (VHH)
VHH: EVQLVESGGGLVQAGGSLRLSCAASGRALISFAMRWFRQAPGKEREFVAAINWSGTHTDYADSVKGRFTISRDNAENTVYLLMNSLIPEDTAVYYCATGWGATQAQHGFWGQGTQVTVSS
notes: C-term myc-His6 tag
B32: 11B61/1-120 (VHH)
VHH: EVQLVESGGGLVQAGGSLRLSCAASGRTSSGYGMGWFRQAPGKEREFVAAVGWYGSTYFADSVKGRFTIYRDNAQNTMYLQMNSLKPEDTAVYYCAASSSLATISQPSSWGQGTQVTVSS
notes: C-term myc-His6 tag
B33: 12E42/1-118 (VHH)
VHH: EVQLVESGGGLVQPGGSLRLSCAHSGRAFSLRTMGWYRQAPGNQRELVALISAGDSTYYPDSVKGRFTVSRDNAKNTVYLQMNSLKPEDTAVYYCNAKAVTSRDHEYWGQGTQVTVSS
notes: C-term myc-His6 tag

Each binder was assayed against T1, recombinant human ErbB2/Fc chimera (human, UniProt P04626 23-652) (assay: ELISA, coated ErbB2/Fc).
T1 construct: bought from R&D Systems; also called rhErbB2-Fc; rhErb2-Fc; Fc part of the bought chimera not given; not described

Binding result, binds:
B1
B2
B3
B4
B5
B6
B7
B8
B9
B10
B11
B12
B13
B14
B15
B16
B17
B18
B19
B20
B21
B22
B23
B24
B25
B26
B27
B28
B29
B30
B31
B32
B33
